Among the data in PMC2688079 are stoichiometry N values, retold here.

Usually stoichiometry N stands for the number of molecules, sites or subunits per partner or assembly.

For this test, the target named is Aqy1 from Pichia pastoris (Pichia pastoris). Kind of test: crystal structure; hanging drop vapour diffusion at 4°C, protein at 9 mg/ml in beta-octylglucopyranoside; Crystal1: 28% PEG400, 100 mM Na-citrate pH 3.5, 200 mM Li2SO4 (1.15 Å); Crystal2: 33% PEG400, 100 mM Tris pH 8.0, 100 mM NaCl, 100 mM CdCl2 (1.40 Å); both space group I4, identical structures.

With “Aqy1 from Pichia pastoris (natural protein)”, the stoichiometry N turned out to be 4.
